Biological target: Mc-VHA-a fused to YFP (M. crystallinum)
Assay: FRET or BRET; in vivo FRET (CFP donor, YFP acceptor, fused to C-termini) in co-transformed A. thaliana mesophyll protoplasts; excitation 458 nm; acceptor photobleaching at 514 nm; confocal microscopy

FRET efficiency: 0.45
Substance: Mc-VHA-c fused to CFP (natural protein)

Reference: article PMC516168
